The values below come from paper PMC5819950, “3.3-Å resolution cryo-EM structure of human ribonucleotide reductase with substrate and allosteric regulators bound” (eLife, 2018).

Sequences and labels used below:
B1: human ribonucleotide reductase β subunit (enzyme)
chain: TKAAAPGVEDEPLLRENPRRFVIFPIEYHDIWQMYKKAEASFWTAEEVDLSKDIQHWESLKPEERYFISHVLAFFAASDGIVNENLVERFSQEVQITEARCFYGFQIAMENIHSEMYSLLIDTYIKDPKEREFLFNAIETMPCVKKKADWALRWIGDKEATYGERVVAFAAVEGIFFSGSFASIFWLKKRGLMPGLTFSNELISRDEGLHCDFACLMFKHLVHKPSEERVREIIINAVRIEQEFLTEALPVKLIGMNCTLMKQYIEFVADRLMLELGFSKVFRVENPFDFMENISLEGKTNFFEKRVGEYQRMGVMSSPTENSFTLDADF
notes: human ribonucleotide reductase β (small) subunit, homodimer β2 with the diferric-tyrosyl radical cofactor; also called β2; human β
B2: human ribonucleotide reductase large subunit (alpha) (enzyme, UniProt P23921 1-792, looked up)
chain: MHVIKRDGRQERVMFDKITSRIQKLCYGLNMDFVDPAQITMKVIQGLYSGVTTVELDTLAAETAATLTTKHPDYAILAARIAVSNLHKETKKVFSDVMEDLYNYINPHNGKHSPMVAKSTLDIVLANKDRLNSAIIYDRDFSYNYFGFKTLERSYLLKINGKVAERPQHMLMRVSVGIHKEDIDAAIETYNLLSERWFTHASPTLFNAGTNRPQLSSCFLLSMKDDSIEGIYDTLKQCALISKSAGGIGVAVSCIRATGSYIAGTNGNSNGLVPMLRVYNNTARYVDQGGNKRPGAFAIYLEPWHLDIFEFLDLKKNTGKEEQRARDLFFALWIPDLFMKRVETNQDWSLMCPNECPGLDEVWGEEFEKLYASYEKQGRVRKVVKAQQLWYAIIESQTETGTPYMLYKDSCNRKSNQQNLGTIKCSNLCTEIVEYTSKDEVAVCNLASLALNMYVTSEHTYDFKKLAEVTKVVVRNLNKIIDINYYPVPEACLSNKRHRPIGIGVQGLADAFILMRYPFESAEAQLLNKQIFETIYYGALEASCDLAKEQGPYETYEGSPVSKGILQYDMWNVTPTDLWDWKVLKEKIAKYGIRNSLLIAPMPTASTAQILGNNESIEPYTSNIYTRRVLSGEFQIVNPHLLKDLTERGLWHEEMKNQIIACNGSIQSIPEIPDDLKQLYKTVWEISQKTVLKMAAERGAFIDQSQSLNIHIAEPNYGKLTSMHFYGWKQGLKTGMYYLRTRPAANPIQFTLNKEKLKDKEKVSKEEEEKERNTAAMVCSLENRDECLMCGS
notes: human ribonucleotide reductase α (large) subunit, 792 residues; the final cryo-EM model holds two residues of tag and residues 1-743, and the 49-residue C-terminal tail is disordered; The number of copies depends on the nucleotides: α2 with TTP, α6 ring (three α2) with dATP, ATP, dATP + ATP, ClFDP or ClFTP; also called human α

The target of data set [1] is B2. The data set can be described thus: negative stain EM; 3 μM α and 3 μM β with 3 mM ATP, 0.05 mM dATP, 1 mM CDP in 50 mM HEPES pH 7.6, 15 mM MgCl2, 50 mM KCl, 5 mM DTT, 37°C for 2 min, diluted ~20 fold; ISAC averages. Particulars: both partners purified.
Data set [2] concerns the molecule itself. The experiment in a line: negative stain EM; α with 0.1 mM TTP, same buffer; 2D class averages.
Data set [3] deals with the molecule itself. The experiment in a line: cryo-EM structure; 14 μM α with 0.05 mM dATP, 3 mM ATP, 1 mM CDP in 50 mM HEPES pH 7.6, 15 mM MgCl2, 1 mM EDTA, 5 mM DTT, 50 mM KCl, incubated at 37°C; single-particle map at 3.3 Å.

Consider B1, for which the stoichiometry N (commonly a count of units in the complex or per binding partner) in data set [1] is 1 β2 per α6 ring.
With B2, the “stoichiometry N” value in data set [2] is 2; in data set [3] it was 6.
